Target: Ub subunit of the UbcH5c-O~Ub conjugate (UniProt P0CG48 1-76, C-terminus oxyester-linked to Ser85 of UbcH5c)
Assay: NMR titration

- binding result: binds
B1: UbcH5c subunit of the UbcH5c-O~Ub conjugate (Cys85Ser, S22R) (enzyme)
chain: not shown
modifications: active site Ser85 oxyester-linked to the Ub C-terminus

Reference: publication PMC3462262 (Molecular cell, 2012)
